Here are results for 17 molecules from patent US8673862 (dated 2014).

This assay has as its target T1, angiotensin converting enzyme (ACE) (UniProt P12821).
T1 chain: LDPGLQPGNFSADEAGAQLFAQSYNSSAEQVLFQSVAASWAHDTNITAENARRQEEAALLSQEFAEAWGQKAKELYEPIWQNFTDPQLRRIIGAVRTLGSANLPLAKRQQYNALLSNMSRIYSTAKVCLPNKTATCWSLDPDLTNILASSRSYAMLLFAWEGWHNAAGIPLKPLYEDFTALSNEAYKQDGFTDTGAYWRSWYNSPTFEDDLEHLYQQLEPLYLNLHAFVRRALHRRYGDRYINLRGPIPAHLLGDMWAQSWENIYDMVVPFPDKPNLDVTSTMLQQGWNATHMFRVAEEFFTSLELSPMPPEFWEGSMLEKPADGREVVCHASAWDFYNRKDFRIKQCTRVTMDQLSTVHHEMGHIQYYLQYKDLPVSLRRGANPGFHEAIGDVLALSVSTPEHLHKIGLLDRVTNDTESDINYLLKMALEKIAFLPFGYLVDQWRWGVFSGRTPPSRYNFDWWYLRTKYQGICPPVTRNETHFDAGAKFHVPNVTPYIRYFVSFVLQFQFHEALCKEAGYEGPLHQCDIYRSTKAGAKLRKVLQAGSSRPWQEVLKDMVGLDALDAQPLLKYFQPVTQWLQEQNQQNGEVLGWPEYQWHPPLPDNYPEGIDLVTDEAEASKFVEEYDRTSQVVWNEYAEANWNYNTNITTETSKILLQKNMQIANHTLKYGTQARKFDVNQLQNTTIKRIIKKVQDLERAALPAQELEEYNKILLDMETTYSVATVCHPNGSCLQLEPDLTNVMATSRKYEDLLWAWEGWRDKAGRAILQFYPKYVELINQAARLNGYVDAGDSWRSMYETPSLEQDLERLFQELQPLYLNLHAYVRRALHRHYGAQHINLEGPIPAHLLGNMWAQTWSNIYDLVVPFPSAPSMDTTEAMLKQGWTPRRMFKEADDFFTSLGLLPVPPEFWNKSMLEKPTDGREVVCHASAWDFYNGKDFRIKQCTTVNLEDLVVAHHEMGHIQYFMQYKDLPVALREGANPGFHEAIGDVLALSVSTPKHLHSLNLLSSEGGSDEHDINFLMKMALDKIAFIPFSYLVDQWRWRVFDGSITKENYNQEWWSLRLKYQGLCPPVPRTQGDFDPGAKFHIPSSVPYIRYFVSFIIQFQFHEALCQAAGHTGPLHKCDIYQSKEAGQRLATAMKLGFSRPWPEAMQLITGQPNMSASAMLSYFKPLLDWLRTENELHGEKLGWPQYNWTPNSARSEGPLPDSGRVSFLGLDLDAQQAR
Put plainly: other, ACE inhibition.

The term IC50 denotes the concentration that gives 50% inhibition. Lower therefore signals higher potency. For the molecule TYA, the IC50 worked out at 526 µM.
For FVNHF, the 50% inhibitory concentration (IC50) amounted to 51.1 µM.
With LL, half-maximal inhibition (IC50) was put at 345 µM.
Regarding GLF, it took 83 µM to reach half-maximal inhibition (IC50).
FV showed an IC50 of 979 µM.
With PDT the figure was 272 µM.
Take GNF: inhibition was half-maximal at 26.9 µM (IC50).
In the case of LF, it took 83 µM to reach half-maximal inhibition (IC50).
With WN the figure was 368 µM; with VGGS, 35.5 µM.
With NDEG the figure was 768 µM.
With TF the figure was 46.2 µM; with VVN, 77 µM.
TSF gave an IC50 of 15.6 µM.
With KK the figure was 921 µM.
Regarding YY, the IC50 worked out at 257 µM.
As to NSL, the IC50 is 64.9 µM.
